Measurements from US20230255948A1 (Stanford University, published 2023).

Assays:
[1] = molecular target: α4β1 integrin on mouse B16 melanoma cells and mouse RAW macrophage cells (mouse, UniProt Q00651 41-1039; P09055 21-798); experiment: cell-based or functional assay
[2] = molecular target: α9β1 integrin on mouse RAW macrophage cells (mouse, UniProt B8JK39 29-1036; P09055 21-798); experiment: cell-based or functional assay
α9β1 integrin on mouse RAW macrophage cells, sequence (B8JK39 29-1036, chain 1 of 2): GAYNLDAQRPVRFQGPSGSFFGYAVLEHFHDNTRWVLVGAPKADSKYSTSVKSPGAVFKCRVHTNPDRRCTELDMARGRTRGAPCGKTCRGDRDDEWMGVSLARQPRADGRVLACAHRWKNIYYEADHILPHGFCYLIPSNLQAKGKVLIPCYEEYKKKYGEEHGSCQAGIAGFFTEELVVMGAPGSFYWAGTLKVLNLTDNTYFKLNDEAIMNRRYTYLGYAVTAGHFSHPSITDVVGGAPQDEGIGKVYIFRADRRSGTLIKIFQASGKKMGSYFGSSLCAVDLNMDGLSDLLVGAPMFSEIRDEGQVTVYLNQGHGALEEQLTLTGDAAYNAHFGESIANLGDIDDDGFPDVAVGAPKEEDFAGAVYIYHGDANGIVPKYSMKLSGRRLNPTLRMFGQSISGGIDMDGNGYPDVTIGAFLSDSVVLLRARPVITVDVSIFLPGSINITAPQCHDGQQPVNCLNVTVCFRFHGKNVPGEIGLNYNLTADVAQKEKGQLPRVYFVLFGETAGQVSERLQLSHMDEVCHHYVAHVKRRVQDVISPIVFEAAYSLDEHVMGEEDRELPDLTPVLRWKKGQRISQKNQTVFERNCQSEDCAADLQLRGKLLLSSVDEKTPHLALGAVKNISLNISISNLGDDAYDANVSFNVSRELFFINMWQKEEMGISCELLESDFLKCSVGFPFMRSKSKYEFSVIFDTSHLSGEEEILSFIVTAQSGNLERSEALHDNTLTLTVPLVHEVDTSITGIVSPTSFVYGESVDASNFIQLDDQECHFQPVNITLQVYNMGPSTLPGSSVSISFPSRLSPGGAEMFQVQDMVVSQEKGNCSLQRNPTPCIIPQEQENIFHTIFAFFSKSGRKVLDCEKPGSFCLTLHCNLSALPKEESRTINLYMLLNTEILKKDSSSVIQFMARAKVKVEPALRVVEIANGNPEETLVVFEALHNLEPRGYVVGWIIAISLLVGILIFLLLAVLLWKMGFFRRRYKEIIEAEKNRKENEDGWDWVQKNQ
α9β1 integrin on mouse RAW macrophage cells, sequence (P09055 21-798, chain 2 of 2): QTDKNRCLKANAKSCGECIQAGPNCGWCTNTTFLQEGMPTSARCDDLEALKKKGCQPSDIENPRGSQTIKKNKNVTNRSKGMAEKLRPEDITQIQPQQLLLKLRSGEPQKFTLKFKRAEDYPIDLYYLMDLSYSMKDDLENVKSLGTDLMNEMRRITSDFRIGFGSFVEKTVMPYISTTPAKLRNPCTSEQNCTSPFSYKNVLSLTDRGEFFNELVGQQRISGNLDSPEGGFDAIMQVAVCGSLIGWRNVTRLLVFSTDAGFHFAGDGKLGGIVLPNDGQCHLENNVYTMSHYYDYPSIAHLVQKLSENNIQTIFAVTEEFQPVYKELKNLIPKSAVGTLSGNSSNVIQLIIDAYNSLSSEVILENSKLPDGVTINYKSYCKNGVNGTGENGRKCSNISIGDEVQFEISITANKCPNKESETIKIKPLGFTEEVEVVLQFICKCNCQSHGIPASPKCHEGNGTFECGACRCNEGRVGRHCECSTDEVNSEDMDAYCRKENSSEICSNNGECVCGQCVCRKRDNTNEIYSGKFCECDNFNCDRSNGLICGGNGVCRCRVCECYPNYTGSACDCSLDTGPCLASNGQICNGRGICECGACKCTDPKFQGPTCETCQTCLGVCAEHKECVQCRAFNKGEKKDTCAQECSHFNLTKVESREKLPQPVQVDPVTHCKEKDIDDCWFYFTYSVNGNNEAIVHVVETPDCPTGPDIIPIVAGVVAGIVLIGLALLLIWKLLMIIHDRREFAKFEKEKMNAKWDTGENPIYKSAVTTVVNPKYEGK

α4β1 integrin on mouse B16 melanoma cells and mouse RAW macrophage cells, sequence (Q00651 41-1039, chain 1 of 2): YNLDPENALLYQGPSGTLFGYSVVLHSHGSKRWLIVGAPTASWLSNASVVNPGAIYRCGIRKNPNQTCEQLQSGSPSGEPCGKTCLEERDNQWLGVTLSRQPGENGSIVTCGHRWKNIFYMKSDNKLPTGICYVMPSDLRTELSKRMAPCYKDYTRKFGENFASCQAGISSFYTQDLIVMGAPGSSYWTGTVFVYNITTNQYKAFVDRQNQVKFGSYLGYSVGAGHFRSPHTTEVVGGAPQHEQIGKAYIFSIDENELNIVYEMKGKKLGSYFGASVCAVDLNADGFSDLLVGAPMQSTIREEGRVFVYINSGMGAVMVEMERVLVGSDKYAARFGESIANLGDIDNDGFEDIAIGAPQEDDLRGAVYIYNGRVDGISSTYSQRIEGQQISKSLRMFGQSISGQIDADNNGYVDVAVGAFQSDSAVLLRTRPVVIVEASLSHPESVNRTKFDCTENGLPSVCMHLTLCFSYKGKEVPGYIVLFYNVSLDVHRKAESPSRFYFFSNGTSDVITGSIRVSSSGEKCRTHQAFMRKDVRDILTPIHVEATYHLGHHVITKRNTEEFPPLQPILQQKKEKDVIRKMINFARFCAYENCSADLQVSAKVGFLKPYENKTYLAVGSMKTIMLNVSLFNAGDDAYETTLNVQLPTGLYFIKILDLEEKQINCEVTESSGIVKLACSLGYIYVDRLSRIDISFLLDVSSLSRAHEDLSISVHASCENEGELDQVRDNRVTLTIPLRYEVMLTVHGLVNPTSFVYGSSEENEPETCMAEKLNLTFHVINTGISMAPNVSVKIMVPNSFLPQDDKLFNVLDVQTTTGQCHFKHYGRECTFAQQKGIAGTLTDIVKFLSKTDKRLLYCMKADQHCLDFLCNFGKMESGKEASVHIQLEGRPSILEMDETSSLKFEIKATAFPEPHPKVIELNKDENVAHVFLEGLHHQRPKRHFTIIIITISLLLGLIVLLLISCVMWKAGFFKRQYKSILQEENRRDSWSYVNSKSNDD
α4β1 integrin on mouse B16 melanoma cells and mouse RAW macrophage cells, sequence (P09055 21-798, chain 2 of 2): as the sequence (P09055 21-798, chain 2 of 2) above

B1: Thrombin-cleaved OPN-Arg (OPN-R) (ligand)
chain: RGDSVVYGLR
[1]
  B16 cell adhesion: ~3.5 fold
  PGE2 secretion in RAW cells: ~4.2 fold
[2]
  PGE2 secretion in RAW cells: ~4.2 fold
